The results in this text go back to PMC4337726, “A molecular basis for the differential roles of Bub1 and BubR1 in the spindle assembly checkpoint” (eLife, 2015).

For one experiment, the target named is Apc7. In words: co-immunoprecipitation (anti-GFP IP), quantified Western blot. The settings on record: mitotic Flp-In T-REx cell lines; mean of two independent experiments; parent: 1.0; read off a plot. On the technique in general: A western blot detects proteins with antibodies after separation by electrophoresis.
In another experiment the target is Bub3 (UniProt O43684). Described as above. The settings on record: mitotic Flp-In T-REx cell lines; mean of two independent experiments; parent: 1.0; read off a plot.
In another experiment the target is Cdc20 (UniProt Q12834). Described as above. The settings on record: mitotic Flp-In T-REx cell lines; mean of two independent experiments; parent: 1.0; read off a plot.
The target of a further experiment is Cdc27. Described as above. The settings on record: mitotic Flp-In T-REx cell lines; mean of two independent experiments; parent: 1.0; read off a plot.
The target in the next experiment is Mad2 (UniProt Q13257). The experiment is described as above. The settings on record: mitotic Flp-In T-REx cell lines; mean of two independent experiments; parent: 1.0; read off a plot.
Experiment [1] has as its target anaphase promoting complex/cyclosome, P30260;Q9UJX3. Description: co-immunoprecipitation (anti-Cdc27 IP), quantified Western blot. The settings on record: mitotic Flp-In T-REx cell lines; mean of two independent experiments; parent: 1.0; read off a plot.
Another experiment concerns the target T1, H6-Bub1^1–409/Bub3 (human | , UniProt O43683 1-409; O43684 1-328).
T1 construct: Bub3, co-expressed, untagged or as Bub3-TRX; source: insect cells, co-infection and co-expression, purified (HisTrap, S200 SEC); not shown: H6, N-terminal, kept
In words: SEC; mobility shift; proteins at 15 µM, 1 hr at 20–22°C in 50 mM Tris–HCl pH 8, 150 mM KCl, 1.5 mM TCEP, 0.05% Tween20; Superose6 10/300; SDS-PAGE of fractions. The settings on record: both partners purified.

A further experiment addresses T2, H6-Bub1^209–409-MBP/Bub3 (human | , UniProt O43683 209-409; O43684 1-328).
T2 construct: Bub3, untagged, co-expressed; source: insect cells, co-expressed, purified (TALON, SEC); not shown: H6, N-terminal, kept; MBP, C-terminal, kept
Described as above. The settings on record: both partners purified.

T1 sequence (O43683 1-409, chain 1 of 2): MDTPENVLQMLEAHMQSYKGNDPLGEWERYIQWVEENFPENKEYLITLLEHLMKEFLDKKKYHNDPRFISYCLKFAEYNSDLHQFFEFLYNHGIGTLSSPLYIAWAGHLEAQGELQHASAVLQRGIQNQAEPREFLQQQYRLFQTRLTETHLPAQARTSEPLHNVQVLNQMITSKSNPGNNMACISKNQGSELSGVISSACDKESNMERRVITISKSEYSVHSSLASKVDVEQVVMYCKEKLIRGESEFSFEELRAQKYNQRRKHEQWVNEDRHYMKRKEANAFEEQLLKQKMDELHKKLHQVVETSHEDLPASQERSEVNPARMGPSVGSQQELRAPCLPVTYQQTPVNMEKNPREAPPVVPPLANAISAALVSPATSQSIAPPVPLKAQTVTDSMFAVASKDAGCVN
T1 sequence (O43684 whole entry, chain 2 of 2): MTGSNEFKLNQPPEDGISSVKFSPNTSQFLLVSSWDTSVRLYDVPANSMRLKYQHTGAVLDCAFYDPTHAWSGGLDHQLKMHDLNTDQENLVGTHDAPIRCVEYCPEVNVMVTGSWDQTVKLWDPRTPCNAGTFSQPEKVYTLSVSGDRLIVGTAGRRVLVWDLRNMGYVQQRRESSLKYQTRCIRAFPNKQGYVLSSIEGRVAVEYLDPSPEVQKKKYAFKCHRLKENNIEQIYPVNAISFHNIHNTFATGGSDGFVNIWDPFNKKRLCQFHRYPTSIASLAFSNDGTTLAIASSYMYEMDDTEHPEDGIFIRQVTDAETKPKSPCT
Sequence of Cdc20 (Q12834 whole entry): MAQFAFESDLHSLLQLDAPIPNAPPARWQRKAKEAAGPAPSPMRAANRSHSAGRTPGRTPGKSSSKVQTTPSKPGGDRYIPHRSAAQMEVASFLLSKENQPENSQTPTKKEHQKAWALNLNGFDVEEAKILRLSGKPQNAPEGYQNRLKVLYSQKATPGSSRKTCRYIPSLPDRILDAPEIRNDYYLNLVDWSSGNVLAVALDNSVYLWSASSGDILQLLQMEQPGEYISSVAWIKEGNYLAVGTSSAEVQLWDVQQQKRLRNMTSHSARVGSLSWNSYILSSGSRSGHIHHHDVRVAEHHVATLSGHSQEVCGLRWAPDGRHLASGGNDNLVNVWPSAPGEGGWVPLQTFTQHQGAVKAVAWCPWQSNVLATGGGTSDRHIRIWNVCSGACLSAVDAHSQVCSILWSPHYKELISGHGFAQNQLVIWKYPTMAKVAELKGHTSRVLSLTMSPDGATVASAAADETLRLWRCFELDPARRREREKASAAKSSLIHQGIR
Sequence of Mad2 (Q13257 whole entry): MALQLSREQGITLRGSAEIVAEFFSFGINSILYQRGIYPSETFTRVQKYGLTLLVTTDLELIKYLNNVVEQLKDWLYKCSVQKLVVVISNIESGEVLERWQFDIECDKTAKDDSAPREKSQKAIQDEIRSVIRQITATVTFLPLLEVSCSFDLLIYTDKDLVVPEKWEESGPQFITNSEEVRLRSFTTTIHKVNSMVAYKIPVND
T2 sequence (O43683 209-409, chain 1 of 2): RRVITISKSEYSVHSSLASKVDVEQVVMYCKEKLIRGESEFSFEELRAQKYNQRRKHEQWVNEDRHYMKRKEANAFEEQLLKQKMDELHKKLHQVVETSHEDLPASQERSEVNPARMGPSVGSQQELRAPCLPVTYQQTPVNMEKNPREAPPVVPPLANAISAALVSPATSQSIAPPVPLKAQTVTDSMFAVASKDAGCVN
T2 sequence (O43684 whole entry, chain 2 of 2): as the sequence (O43684 whole entry, chain 2 of 2) above
Sequence of Bub3 (O43684 whole entry): as the sequence (O43684 whole entry, chain 2 of 2) above

As for “GFP-BubR1 wild type, full length (from UniProt O60566) B1-loop”, the ratio to parent with Apc7 amounted to 0.08; with Bub3, 1.1; in the experiment with Cdc20, 0.12; with Cdc27, 0.06; with Mad2, 0.12; in experiment [1], 0.15.

B1: H6-TRX-BubR1^362–571 (domain or fragment, human, UniProt O60566 362-571, looked up)
chain: INHILSTRKPGKEEGDPLQRVQSHQQASEEKKEKMMYCKEKIYAGVGEFSFEEIRAEVFRKKLKEQREAELLTSAEKRAEMQKQIEEMEKKLKEIQTTQQERTGDQQEETMPTKETTKLQIASESQKIPGMTLSSSVCQVNCCARETSLAENIWQEQPHSKGPSVPFSIFDEFLLSEKKNKSPPADPPRVLAQRRPLAVLKTSESITSNE
notes: source: insect cells, baculovirus, purified (TALON, SEC)
For the molecule B1, the binding result in the experiment with H6-Bub1^1–409/Bub3 and in the experiment with H6-Bub1^209–409-MBP/Bub3 was “binds” each time.
